Data as given in patent US12583888B2, “Bi-specific extracellular matrix binding peptides and methods of use thereof” (University of Tartu, priority 2019, dated 2026).
No end group written: not given here.

Key:
fibronectin EDB-domain = biological target: T1, fibronectin EDB-domain (Homo sapiens, UniProt P02751); experiment: PL3 phage binding to fibronectin EDB-domain
T1 construct: made in house; host or cells: E. coli BL21 Rosetta 2 (DE3) pLysS
Excerpt: The recovered phage was tittered and amplified for a subsequent round of selection. […] RPARPAR phage on NRP-1-coated beads was used as a positive control (Teesalu et al., 2009). Phage clones displaying heptaglycine peptide (GGGGGGG, G7 (SEQ ID NO:20)) or insert less phage clones were used as negative controls.

U87-MG glioblastoma = settings: i.v. equimolar mix, 2 h circulation
Excerpt: (§1) In vivo play-off was used to evaluate systemic homing of peptide phage to xenograft tumor models. The in vitro selected candidate TNC-C binding peptides, phages displaying published tumor homing peptides, and control peptides were amplified and purified by precipitation with PEG-8000 (Sigma-Aldrich, St. Louis, MO, USA), followed by CsCl2 gradient ultracentrifugation and dialysis. The amplified phage peptides were pooled in equimolar quantities, and injected intravenously (final 1×10^10 pfu in 200 μl PBS) in tumor-bearing mice for two hour circulation, after which mice were anesthetized with 2.5% avertin and intracardially perfused with DMEM intracardially. The tumors and organs were collected in lysogeny broth (LB)+1% NP40, and the tissues were homogenized using a hand-held homogenizer for phage peptide rescue. Phages in the tissue lysates were amplified in E. coli, purified by precipitation with PEG-8000 and DNA was extracted using a DNA extraction kit (High Pure PCR Template Preparation Kit; Roche, Basel, Switzerland). Next-generation sequencing of phage genomic DNA evaluated the representation of each phage in input mixture, in tumor and control organs with Ion Torrent system (Thermo Fisher Scientific, Waltham, MA, USA). The next generation deep sequencing of phage library was done using Ion Torrent according to the manufacturer's protocol with slight modification. The FASTQ data from Ion Torrent was processed by a custom python script that identified the barcodes, constant flanking residues, and extracted the reads of the correct length.

WT-GBM tumor = settings: i.v. equimolar mix, 2 h circulation
Excerpt: as §1

P13 tumor = settings: i.v. equimolar mix, 2 h circulation
Excerpt: as §1

normal brain = settings: i.v. equimolar mix, 2 h circulation
Excerpt: as §1

[1] = tested on: PC3 prostate carcinoma xenografts; settings: i.v. equimolar mix, 2 h circulation
Excerpt: as §1

P3 stem cell-like tumor = settings: i.v. equimolar mix, 2 h circulation
Excerpt: as §1

M21 cells = experiment: Cell binding and internalization of CF555-labeled AgNPs; assay type: cell-based; settings: NRP-1-negative M21, 1 h incubation
Procedure: (§2) U87-MG, PPC1, and M21 cells cultured on glass coverslips were incubated with CF555-labeled AgNPs at 37° C. for 1 hour, followed by washing with medium to remove background AgNPs. Etching solution freshly diluted from 0.2 M stock solutions of Na2S2O3 and K3Fe(CN)6 to 10 mM working concentration in PBS was applied to cells for 3 minutes, followed by PBS washes. The cells on coverslips were fixed with −20° C. methanol for 1 minute. The cell membrane was visualized by staining with Alexa Fluor 488-labeled wheat germ agglutinin (WGA) at 1:1000 at RT for 1 h. […] Fluoromount-G (Electron Microscopy Sciences) medium was used to mount the coverslips on microscope slides for confocal imaging.

U87-MG xenograft = experiment: In vivo fluorescence imaging with the IVIS Spectrum system; design: species or system mice
Procedure: Live imaging of PL3 peptide tumor homing was assessed by in vivo fluorescence imaging with the IVIS Spectrum imaging system (PerkinElmer, Waltham, MA) in U87-MG xenograft mice model (Male, 18-20 weeks of age). AgNPs with CF647 dye-labeled neutravidin coating was functionalized with biotinylated PL3 peptide (AgNP-PL3) or control biotin (AgNP). AgNP PL3 and AgNP particles were injected intravenously into the mice. For assessment of tumor PL3 targeted delivery and homing by IVIS, mice were placed in a dark imaging chamber under isoflurane anesthesia, and imaged with the following parameters. Specific excitation filter, 650 nm; emission filter, 665 nm; auto exposure time; binning, medium; field of view, 12; f/stop, 2; open filter. The images were captured at pre-injection (0 hours) and five-hour post-injection. The signal was expressed in total Radiant Efficiency [p/s]/[μW/cm^2]. The regions of interest (ROIs) were drawn covering the whole tumor in each mouse after tissue background correction, and radiant efficiency signal was quantitated. An automated spectral unmixing algorithm was used, images were analyzed by using Living Image 4.4 software (Caliper Life Sciences, Hopkinton, MA). Three animals per experimental group were analyzed. For the receptor blocking studies, PL3-AgNP injection was preceded by systemic pre-injection of blocking TNC-C and/or NRP1 antibodies (30 μg/mouse) 15 minutes prior to injection of the AgNPs.

PPC1 cells = experiment: Cell binding and internalization of CF555-labeled AgNPs; assay type: cell-based; settings: NRP-1-positive PPC1, 1 h incubation
Procedure: as §2

U87-MG cells = experiment: as above; assay type: cell-based, human; settings: NRP-1-positive U87-MG, 1 h incubation
Procedure: as §2

T1 sequence (P02751 with tags, fused parts or gaps): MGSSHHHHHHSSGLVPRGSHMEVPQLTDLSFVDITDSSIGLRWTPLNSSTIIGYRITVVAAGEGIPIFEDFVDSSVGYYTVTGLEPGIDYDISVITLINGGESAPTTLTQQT

| Substance | binding to fibronectin EDB-domain (fibronectin EDB-domain) | Representation of phage in tumors (fold G7 control phage), U87-MG (U87-MG glioblastoma) | Representation of phage in tumors (fold G7 control phage), WT-GBM (WT-GBM tumor) | Representation of phage in tumors (fold G7 control phage), P13 (P13 tumor) | Representation of phage in control brain tissue (fold G7 control phage), Norm. brain (normal brain) | Representation of phage in tumors (fold G7 control phage), PC3 [1] | Representation of phage in tumors (fold G7 control phage), P3 SCL (P3 stem cell-like tumor) | cellular uptake (M21 cells) | accumulation in glioma lesions more than control non-peptide CF647-AgNP (U87-MG xenograft; 5 hours, i.v.) | tumor homing on coadministration with blocking antibodies (U87-MG xenograft; cocktail of both antibodies) | tumor homing on coadministration with blocking antibodies (U87-MG xenograft; rabbit polyclonal antibodies against either TNC-C or NRP-1) | cellular uptake (PPC1 cells) | cellular uptake (U87-MG cells) |
| --- | --- | --- | --- | --- | --- | --- | --- | --- | --- | --- | --- | --- | --- |
| AGRGRLVR [PL3] | did not bind | 2.1 fold | 24.1 fold | 4.7 fold | 0.4 fold | 3.9 fold | 2.1 fold | low background-like uptake |  |  |  |  |  |
| PL3-AgNPs: dye-labeled neutravidin-coated silver nanoparticles functionalized with biotinylated PL3 peptide (AGRGRLVR; also: biotinylated, bound to dye-labeled neutravidin-coated silver nanoparticles) |  |  |  |  |  |  |  |  | ~10 fold | almost completely inhibited the tumor accumulation | decrease in tumor homing | robustly endocytosed with perinuclear accumulation | robustly endocytosed with perinuclear accumulation |
